# In patent US20080279864A1 (Johns Hopkins, published 2008):
# Ends that are not written are not given here.
# B1: I-IIB(436-482)-pGADT7 (other, human, UniProt Q00975 436-482, looked up, not shown: large carriers)
# chain: DRFADLCAVGSPFARASLKSGKTESSSYFRRKEKMFRFFIRRMVKAQ
# notes: range 436-482; Yeast two-hybrid fusion; GAL4 domain placed first by the vector's design
# B2: I-IIB(357-482)-pGADT7 (I-II loop of α1B fused to the GAL4 activation domain) (other, human, UniProt Q00975 357-482, looked up, not shown: large carriers)
# chain: GEFAKERERVENRRAFLKLRRQQQIERELNGYLEWIFKAEEVMLAEEDRNAEEKSPLDVLKRAATKKSRNDLIHAEEGEDRFADLCAVGSPFARASLKSGKTESSSYFRRKEKMFRFFIRRMVKAQ
# notes: range 357-482; Yeast two-hybrid fusion; GAL4 domain placed first by the vector's design; also called I-IIB (pGADT7)
# B3: I-IIB(398-435)-pGADT7 (other, human, UniProt Q00975 398-435, looked up, not shown: large carriers)
# chain: VMLAEEDRNAEEKSPLDVLKRAATKKSRNDLIHAEEGE
# notes: range 398-435; Yeast two-hybrid fusion; GAL4 domain placed first by the vector's design
# B4: NTB (1-44)-CFP (other)
# chain: MVRFGDELGGRYGGPGGGERARGGGAGGAGGPGPGGLQPGQRVL-{ECFP}
# modifications: also: ECFP fused C-terminally, linker not given here
# notes: not shown: ECFP fused C-terminal to the test molecule
# B5: NTB(1-55)-pGBKT7 (other)
# chain: MKLLSSIEQACDICRLKKLKCSKEKPKCAKCLKNNWECRYSPKTKRSPLTRAHLTEVESRLERLEQLFLLIFPREDLDMILKMDSLQDIKALLTGLFVQDNVNKDAVTDRLASVETDMPLTLRQHRISATSSSEESSNKGQRQLTVSMVRFGDELGGRYGGPGGGERARGGGAGGAGGPGPGGLQPGQRVLYKQSIAQRART
# notes: Yeast two-hybrid fusion; GAL4 domain placed first by the vector's design
# B6: NTB (56-95)-CFP (other)
# chain: MALYNPIPVKQNCFTVNRSLFVFSEDNVVRKYAKRITEWP-{ECFP}
# modifications: also: ECFP fused C-terminally, linker not given here
# notes: as for B4
# B7: I-IIB(357-397)-pGADT7 (other, human, UniProt Q00975 357-397, looked up, not shown: large carriers)
# chain: GEFAKERERVENRRAFLKLRRQQQIERELNGYLEWIFKAEE
# notes: range 357-397; Yeast two-hybrid fusion; GAL4 domain placed first by the vector's design; Equating this segment with the 'N-terminal third' of the text is an inference; also called N-terminal third of the I-IIB loop; NH3-terminal third of the I-IIB loop
# B8: I-IIB(357-482)-pGBKT7 (I-II loop of α1B fused to the GAL4 binding domain) (other, UniProt P04386 1-147, looked up)
# chain: MKLLSSIEQACDICRLKKLKCSKEKPKCAKCLKNNWECRYSPKTKRSPLTRAHLTEVESRLERLEQLFLLIFPREDLDMILKMDSLQDIKALLTGLFVQDNVNKDAVTDRLASVETDMPLTLRQHRISATSSSEESSNKGQRQLTVSGEFAKERERVENRRAFLKLRRQQQIERELNGYLEWIFKAEEVMLAEEDRNAEEKSPLDVLKRAATKKSRNDLIHAEEGEDRFADLCAVGSPFARASLKSGKTESSSYFRRKEKMFRFFIRRMVKAQ
# notes: Yeast two-hybrid fusion; GAL4 domain placed first by the vector's design; also called I-IIB (pGBKT7)
# B9: NTB(1-95)-pGBKT7 (NH3 terminus of α1B fused to the GAL4 binding domain) (other)
# chain: MKLLSSIEQACDICRLKKLKCSKEKPKCAKCLKNNWECRYSPKTKRSPLTRAHLTEVESRLERLEQLFLLIFPREDLDMILKMDSLQDIKALLTGLFVQDNVNKDAVTDRLASVETDMPLTLRQHRISATSSSEESSNKGQRQLTVSMVRFGDELGGRYGGPGGGERARGGGAGGAGGPGPGGLQPGQRVLYKQSIAQRARTMALYNPIPVKQNCFTVNRSLFVFSEDNVVRKYAKRITEWP
# notes: Yeast two-hybrid fusion; GAL4 domain placed first by the vector's design; also called NTB (pGBKT7); full-length NTB
# B10: lam-pGBKT7 (lamin C attached to the GAL4 binding domain) (other, UniProt P04386 1-147, looked up)
# chain: MKLLSSIEQACDICRLKKLKCSKEKPKCAKCLKNNWECRYSPKTKRSPLTRAHLTEVESRLERLEQLFLLIFPREDLDMILKMDSLQDIKALLTGLFVQDNVNKDAVTDRLASVETDMPLTLRQHRISATSSSEESSNKGQRQLTVSSEEVVSREVSGIKAAYEAELGDARKTLDSVAKERARLQLELSKVREEFKELKARNTKKEGDLIAAQARLKDLEALLNSKEAALSTALSEKRTLEGELHDLRGQVAKLEAALGEAKKQLQDEMLRRVDAENRLQTMKEELDFQKNIYSEELRETKRRHETRLVEID
# B11: NTB-CFP (other)
# chain: MVRFGDELGGRYGGPGGGERARGGGAGGAGGPGPGGLQPGQRVLYKQSIAQRARTMALYNPIPVKQNCFTVNRSLFVFSEDNVVRKYAKRITEWP
# notes: also called NTB-CFP peptide; NTB (1-95) in FRET; not shown: ECFP fused C-terminal to the test molecule
# B12: pGADT7 (empty vector; the isolated GAL4 activating domain itself) (other, UniProt P04386 768-881, looked up)
# chain: ANFNQSGNIADSSLSFTFTNSSNGPNLITTQTNSQALSQPIASSNVHDNFMNNEITASKIDDGNNSKPLSPGWTDQTAYNAFGITTGMFNTTTMDDVYNYLFDDEDTPPNPKKE
# notes: also called empty pGADT7
# What was measured:
# [1] = biological target: B10; test: yeast two-hybrid control against lamin C, % of colonies surviving on high stringency plates, mean ± SEM
# [2] = biological target: T1, NTC(1-153)-pGBKT7 (NH3 terminus of α1C fused to the GAL4 binding domain) (rabbit, UniProt P04386 1-147; P15381 1-153); test: yeast two-hybrid
# T1 construct: Yeast two-hybrid fusion; GAL4 domain placed first by the vector's design; also called NTC (pGBKT7)
# I-IIB-YFP [3] = biological target: T2, I-IIB-YFP (human, UniProt Q00975 357-482); test: FRET two-hybrid in HEK293 cells
# T2 construct: range 357-482; also called I-IIB in FRET; not shown: EYFP fused C-terminal to the test molecule
# [4] = biological target: T3, Gβ1 fused to the GAL4 activation domain (Gβ1 in pGADT7) (UniProt P62871 1-340); test: yeast two-hybrid
# T3 construct: Yeast two-hybrid fusion; GAL4 domain placed first by the vector's design; also called Gβ1 (pGADT7); Gβ1/pGADT7
# T3 sequence (P62871 whole entry, the tested form may be a part): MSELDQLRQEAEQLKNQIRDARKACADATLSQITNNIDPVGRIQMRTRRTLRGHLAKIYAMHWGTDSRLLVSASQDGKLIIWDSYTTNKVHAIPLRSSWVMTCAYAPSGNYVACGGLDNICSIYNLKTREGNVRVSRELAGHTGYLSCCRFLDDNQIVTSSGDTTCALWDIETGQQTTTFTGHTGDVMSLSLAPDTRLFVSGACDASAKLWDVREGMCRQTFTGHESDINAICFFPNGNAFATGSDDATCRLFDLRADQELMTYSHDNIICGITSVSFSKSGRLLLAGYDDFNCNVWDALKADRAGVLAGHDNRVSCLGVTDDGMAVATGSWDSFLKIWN
# [5] = biological target: T3, Gβ1 fused to the GAL4 activation domain …; test: yeast two-hybrid, Gβ1 in pGADT7 against I-IIB in pGBKT7
# [6] = biological target: T3, Gβ1 fused to the GAL4 activation domain …; test: yeast two-hybrid, background control
# I-IIB-YFP [7] = biological target: T2, I-IIB-YFP; test: FRET two-hybrid in HEK293 cells (three-cube FRET and YFP photobleaching)
# [8] = biological target: T4, CTC(1525-1670)pGBKT7 (proximal third of the α1C COOH terminus fused to the GAL4 binding domain) (rabbit, UniProt P04386 1-147; P15381 1525-1670); test: yeast two-hybrid auto-activation control (empty pGADT7), % of colonies surviving on high stringency plates, mean ± SEM
# T4 construct: Yeast two-hybrid fusion; GAL4 domain placed first by the vector's design; also called CTC (pGBKT7)
# [9] = biological target: T5, NTA(2-100)pGBKT7 (NH3 terminus of the P/Q-type α1A subunit fused to the GAL4 binding domain) (UniProt P04386 1-147); test: as above
# T5 construct: Yeast two-hybrid fusion; GAL4 domain placed first by the vector's design
# NTB(45-95)-pGBKT7 [10] = biological target: T6, NTB(45-95)-pGBKT7 (human, UniProt P04386 1-147 (Saccharomyces cerevisiae entry)); test: as above
# T6 construct: Yeast two-hybrid fusion; GAL4 domain placed first by the vector's design
# [11] = biological target: B9; test: as above
# [12] = biological target: T7, CTA(1763-1928)pGBKT7 (proximal COOH terminus of the P/Q-type α1A subunit fused to the GAL4 binding domain) (UniProt P04386 1-147); test: as above
# T7 construct: Yeast two-hybrid fusion; GAL4 domain placed first by the vector's design
# [13] = biological target: T1, NTC(1-153)-pGBKT7 (NH3 terminus of α1C …); test: as above
# NTB(1-55)-pGBKT7 [14] = biological target: B5; test: as above
# NTB(Δ45-55)-pGBKT7 [15] = biological target: T8, NTB(Δ45-55)-pGBKT7 (human, UniProt Q00975 1-95); test: as above
# T8 construct: Yeast two-hybrid fusion; GAL4 domain placed first by the vector's design; also called NTB peptide lacking residues 45-55
# [16] = biological target: T4, CTC(1525-1670)pGBKT7 (proximal third of …); test: yeast two-hybrid auto-activation control (empty pGADT7), filter lift β-galactosidase assay, % of colonies turning blue, mean ± SEM
# [17] = biological target: T5, NTA(2-100)pGBKT7 (NH3 terminus of the …); test: as above
# NTB(45-95)-pGBKT7 [18] = biological target: T6, NTB(45-95)-pGBKT7; test: as above
# [19] = biological target: B9; test: as above
# [20] = biological target: T7, CTA(1763-1928)pGBKT7 (proximal COOH …); test: as above
# [21] = biological target: T1, NTC(1-153)-pGBKT7 (NH3 terminus of α1C …); test: as above
# NTB(1-55)-pGBKT7 [22] = biological target: B5; test: as above
# NTB(Δ45-55)-pGBKT7 [23] = biological target: T8, NTB(Δ45-55)-pGBKT7; test: as above
binder,measurement,setting,value
B1,High Stringency (%),[1],0%
B2,High Stringency (%),[1],0.74%
same,binding result,[2],no binding
B3,High Stringency (%),[1],0.04%
B4,binding result,I-IIB-YFP [3],no binding
B5,binding result,[4],binds
B6,binding result,I-IIB-YFP [3],binds
B7,High Stringency (%),[1],0%
B8,binding result,[5],binds
B9,binding result,[4],binds
B10,binding result,[6],no binding
B11,binding result,I-IIB-YFP [7],binds
B12,High Stringency (%),[8],0%
same,High Stringency (%),[9],0%
same,High Stringency (%),NTB(45-95)-pGBKT7 [10],0%
same,High Stringency (%),[11],0.34%
same,High Stringency (%),[12],0.1%
same,High Stringency (%),[13],1%
same,High Stringency (%),NTB(1-55)-pGBKT7 [14],3.84%
same,High Stringency (%),NTB(Δ45-55)-pGBKT7 [15],0.56%
same,Filter Lift Assay (%),[16],0%
same,Filter Lift Assay (%),[17],0.82%
same,Filter Lift Assay (%),NTB(45-95)-pGBKT7 [18],0%
same,Filter Lift Assay (%),[19],0.14%
same,Filter Lift Assay (%),[20],0%
same,Filter Lift Assay (%),[21],0%
same,Filter Lift Assay (%),NTB(1-55)-pGBKT7 [22],1.56%
same,Filter Lift Assay (%),NTB(Δ45-55)-pGBKT7 [23],2.5%
